The text below walks through data of patent US20250339504A1, “CANCER VACCINE WITH USE OF COMMON CANCER ANTIGEN COCKTAIL, TCR/CAR-T CELL THERAPEUTIC, COMPANION DIAGNOSTIC METHOD, AND METHOD FOR DIAGNOSING RISK OF CANCER ONSET BY DETECTING CIRCULATING TUMOR CELLS” (National Cancer Center, priority 2022, published 2025).

Data set [1] concerns T2 cells to which an HSP105-derived peptide had been exogenously bound. Put plainly: IFN-γ ELISPOT of HLA-A2-restricted HSP105-specific T cell clones. Type of data set: cell-based. Particulars: coculture with HLA-A2 T2 cells in the presence of the peptide, 20 hours. As to the method:
HSP105-HLA-A2 Dextramer was not capable of being sufficiently stained, thus being unavailable for detection of binding T cells. […] CD107a-positive CD8 T cells were selected by single sorting, and cultured on allofeeder cells to establish T cell clones.
The established T cell clones were cocultured with target cells (T2 cells) to which an HSP105-derived peptide had been exogenously bound for 20 hours, and the antigen stimulation-dependent IFN-γ productions were evaluated. The antigen specificities were evaluated by using cells to which a HIV-derived peptide had been bound as a negative control.

Data set [2] relates to T2 cells to which the peptide had been exogenously bound.
Method: (§1) Target cells were labeled with a fluorescent dye (calcein) and cocultured with each T cell clone for 4 hours, and the cytotoxic activities against target cells were evaluated on the basis of attenuation of fluorescence as an indicator. […] The cytotoxic activities were evaluated with cancer cell lines endogenously expressing HSP105 as targets. Caski cells and SiHa-A2 cells were used as HSP105-positive cell lines, and an SW620 cell line and HepG2 cell line were used as HSP105-negative cell lines.

Method for CasKi cell line: as §1
Method for SW620 cell line: as §1
Method for SiHaA2 cell line: as §1

B1: 10G7: HLA-A2-restricted T cell clone/TCR recognizing HSP105-derived peptide; SEQ ID NO: 197, 198 (protein, listed as Homo sapiens)
chain 1: MWGVFLLYVSMKMGGTTGQNIDQPTEMTATEGAIVQINCTYQTSGFNGLFWYQQHAGEAPTFLSYNVLDGLEEKGRFSSFLSRSKGYSYLLLKELQMKDSASYLCAVRALREAGTALIFGKGTTLSVSS
chain 2: MDTWLVCWAIFSLLKAGLTEPEVTQTPSHQVTQMGQEVILRCVPISNHLYFYWYRQILGQKVEFLVSFYNNEISEKSEIFDDQFSVERPDGSNFTLKIRSTKLEDSAMYFCASSQNREAFFGQGTRLTVV
B1: in data set [1], the “antigen-specific IFN-γ production capability” value was “strong IFN-γ production capability”. The “damaging (cytotoxic) activity” value in data set [2] is recorded as “exhibited damaging activity”. Besides, the cytotoxic activity result in the data set with CasKi cell line is on record as “significant cytotoxic activity”; in the data set on SiHaA2 cell line it was “No significant cytotoxic activity”; with SW620 cell line, “No significant cytotoxic activity”.

B2: 11B9: HLA-A2-restricted T cell clone/TCR recognizing HSP105-derived peptide; SEQ ID NO: 193, 194 (protein, listed as Homo sapiens)
chain 1: MACPGFLWALVISTCLEFSMAQTVTQSQPEMSVQEAETVTLSCTYDTSESDYYLFWYKQPPSRQMILVIRQEAYKQQNATENRFSVNFQKAAKSFSLKISDSQLGDAAMYFCAYRIPGAGSYQLTFGKGTKLSVIP
chain 2: MGTRLLCWVVLGFLGTDHTGAGVSQSPRYKVAKRGQDVALRCDPISGHVSLFWYQQALGQGPEFLTYFQNEAQLDKSGLPSDRFFAERPEGSVSTLKIQRTQQEDSAVYLCASSPGLAGGAQETQYFGPGTRLLVL
Consider B2, for which the “antigen-specific IFN-γ production capability” value in data set [1] is given as “largely lower reactivity than the other clones”.

B3: 10C9: HLA-A2-restricted T cell clone/TCR recognizing HSP105-derived peptide; SEQ ID NO: 202, 203 (protein, listed as Homo sapiens)
chain 1: MSLSSLLKVVTASLWLGPGIAQKITQTQPGMFVQEKEAVTLDCTYDTSDPSYGLFWYKQPSSGEMIFLIYQGSYDQQNATEGRYSLNFQKARKSANLVISASQLGDSAMYFCAMRDRNTGNQFYFGTGTSLTVIP
chain 2: MGFRLLCCVAFCLLGAGPVDSGVTQTPKHLITATGQRVTLRCSPRSGDLSVYWYQQSLDQGLQFLIQYYNGEERAKGNILERFSAQQFPDLHSELNLSSLELGDSALYFCASSVEVYNEQFFGPGTRLTVL
In the case of B3, the “antigen-specific IFN-γ production capability” value in data set [1] is “strong IFN-γ production capability”. Moreover, the “damaging (cytotoxic) activity” value in data set [2] is reported as “exhibited damaging activity”. In addition, the cytotoxic activity result was “significant cytotoxic activity” with CasKi cell line, “No significant cytotoxic activity” in the data set on SiHaA2 cell line and “No significant cytotoxic activity” in the data set with SW620 cell line.

B4: 7B9: HLA-A2-restricted T cell clone/TCR recognizing HSP105-derived peptide; SEQ ID NO: 195, 196 (protein, listed as Homo sapiens)
chain 1: METLLGVSLVILWLQLARVNSQQGEEDPQALSIQEGENATMNCSYKTSINNLQWYRQNSGRGLVHLILIRSNEREKHSGRLRVTLDTSKKSSSLLITASRAADTASYFCATDTGGAQKLVFGQGTRLTINP
chain 2: MDSWTLCCVSLCILVAKHTDAGVIQSPRHEVTEMGQEVTLRCKPISGHDYLFWYRQTMMRGLELLIYFNNNVPIDDSGMPEDRFSAKMPNASFSTLKIQPSEPRDSAVYFCASSPDRGETQYFGPGTRLLVL
On to B4, for which, in data set [1], the “antigen-specific IFN-γ production capability” value is reported as “strong IFN-γ production capability”. Besides, the cytotoxic activity result in the data set with CasKi cell line was “significant cytotoxic activity”; with SiHaA2 cell line, “No significant cytotoxic activity”; with SW620 cell line it was “No significant cytotoxic activity”.
